# In patent US20050075291:
# Target: reconstituted tissue factor (Innovin, Dade) (UniProt P13726)
# Chain of UniProt P13726 (P13726 33-295): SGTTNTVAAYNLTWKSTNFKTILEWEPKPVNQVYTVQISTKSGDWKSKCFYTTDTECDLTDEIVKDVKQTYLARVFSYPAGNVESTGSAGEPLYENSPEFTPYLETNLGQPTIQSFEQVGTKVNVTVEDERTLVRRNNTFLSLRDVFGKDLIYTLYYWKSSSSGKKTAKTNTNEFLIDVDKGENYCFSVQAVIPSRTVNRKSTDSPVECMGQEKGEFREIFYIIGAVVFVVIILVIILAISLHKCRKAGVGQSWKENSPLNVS
Substance,"competition assay (clotting time as a function of added FFR-VIIa, 0 to 3.5 nM)","competition with active-site modified VIIa (0-3.2 nM), clotting time"
Human factor VIIa-T9Q11E33,Human factor VIIa-T9Q11E33 exhibited a severe loss of competitive binding affinity,–
factor VII with leucine for phenylalanine at position 5 (which contained the Q11E33 mutations),–,had much lower activity than the Q11E33 mutant
